# Test results: the nanobody polyreactivity screen of Harvey et al. (2022)
# Test: yeast display, Sf9 membrane polyspecificity reagent, FACS + sequencing; frameworks hold sequencing errors
# In short: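 A nanobody's polyreactivity label depends on the gate it was sorted from. Yeast display cells were stained with 10% biotinylated, detergent-solubilized Sf9 membrane reagent for 1 hour at 4 °C, enriched on streptavidin microbeads and sorted by FACS. The low and high (top ~1%) gates were set on anti-HA fluorescence for expression and streptavidin fluorescence for reagent binding.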
row,Sequence,polyreactivity (PSR sort gate)
1,QVQLVESGGGLVQAGGSLRLSCAASGITFPFYAMGWYRQAPGKERELVAAISWSDVDTYYADSVKGRFTISRDNAKNTVYLQMNSLKPEDTAVYYCAVSGVHPYWSDYEYWGQGTQVTVSS,low polyreactivity
2,QVQLVESGGGLVQAGGSLRLSCAAYGSTLSPYTMGWYRQAPGKERELVAAITQSGGSTYYADSVKGRFTISRDKAKYTVYLQMNSLKPEDTAVYYCNRDYNADYDWGQGTQVTVSS,high polyreactivity
3,QVQLVESGGGLVQAGGSLRLSCAASGVIFFSYAMGWYRQAPGKERELVASISRSGGTTYYADSVKGRFTISRDNGKNTVYLQMNSLKPEDTAVYYCAARTYSYYSRDYCGQGTQVTVSS,high polyreactivity
4,QVQLVESGGGIVQAGGSLRLSCAASGITFVAYDMGGYRQAPGKERELVAAITWNGDRTYYADSVKGRFTISRDNAKNTVYVEMNSLKPEDTAVYDCSAYHYYYEMDYWGQGTQVTVPS,high polyreactivity
5,QVQLVESGGGLVQAGGSLRLSCAASGSTFGRYAMGWSRQAPGKEWELVAAISGRGGSTYYADSVKGRFTISRDNAKNTVYLQMNSLKPEDTAVYYCAVRYYSARYWYGYDYWGQGTQVTVSS,high polyreactivity
6,QVQLVESGGGLVQAAGSLRLSCAASGSISGYYAMGWYRQAPGKERELVASIRYTGARTYYADSVKGRFTISRDNAKNTVYLQMNSLKPEDTAVYYCAADVKRDRVWGGDYWGQGTQVTVSS,low polyreactivity
7,QVQLVESGGGVVQAGGSLRLSGAASGITFSVNAMGWYRPAPGKEREFVAAISSSGGSTYYADSVKGRFTISRDNAKNTVYLQMNSLKPEDTAVYYCAVDYYSYYYEDDYWGQGTQVTVSS,high polyreactivity
8,QVQLVESGGGLVQAGGSLRLSCAASGRIFRWYTMGWYRQAPGKEREFVDAITWSDTSTSYADSVKGRFTISRDNAKNTVYLQMNSLKPEDTAVYYCNAATRSSVTFGWYIEYDYWGQGTQVTVSS,low polyreactivity
9,QVQLVDSGGGLVQAGGSLRIIRAASGSISGYNAMGWYRQAPGKERELVAAIYRSDGKDYADSVKGRFTISRDNAKNTVYLQMNSMIPEDTAVYYCIAVKWSVVGYVLGFYRDDYWGQGTQVTVSS,low polyreactivity
10,QVQLVESGGGLDQAGGSLRLSCAASGRTFEQYAMGWYRQAPGKVRELVAAISGSGGSTFYADSVKGRFTISRDNAKNTVYLQMNSLKPEDTAVYYCADKYDGSYVGLYWYSMNYCGQGTQVTVSS,low polyreactivity
11,QVQLVESGGGLVQPRGSLSLSCAASGYIFDYYDMGWYRPAPGKERELVAAISSSGGTTYYADSVKGRFTISRDNGKNTVYLQMNSLKPEDTAVYYCAAVAVLPRSDYWGQGTQVTVSS,high polyreactivity
12,QVQLVESGRGLVQAGGSLRISCAASGFTFSRYAMGWYRQAPGKERELVAAISLRGGRTYYADSVKGRFTISRDNAKNTVYLQMNSLKPEDTAVYYCNRDYRGPYYYWGQGTQVTVSS,high polyreactivity
13,QVQLVESGGGLVQAGGSLRLSCAASVRIFYRYGMGLYRQAPGKERELVASITRGGSTYYADSVKGRFTISRDNAKNTVYLQMNSLKPEDTAVYYCATKSSAGYDYWGQGTQVTVSS,low polyreactivity
14,QVQLVESGGGLVQAGGSLRLSCAASGSIFSYYAMGWYRQAPGKERELVAAISRGGSTYYADSVKGRFTISRDKAKNTVYLQMNSLKPEDTAVYYCNVDSFRYRHTGYGYTRYGYWGQGTQVTVSS,high polyreactivity
15,QVKHVESGGGLVKAGGSLRLSCPAAGRIIDKYAMGWYRQSPGKERELVATITSSGGSTYYADSVKGRFTISRDTAMNNVYLQMNSLKPEDTAVYYCDALDRTGYSRGETRSLYYFWGQGTQVTVSS,low polyreactivity
16,QDQLVESGGGLVQAGGSLRLSCAASGIIFDYYAMGWYRQAPGKERELVASISWSGGGTYYADSVKGRFTISRDNAKNTVYLQMNSLKAEDTAVYYCAADGSTVNAPRWSDPYDYWGQGTQVTVSS,low polyreactivity
17,QVQLVESGGGLVQAGGSLRISCAASGSTFSYYTMGWYRQAPGKERELVAAISRTGGSTYYADSVKGRFTISRDNAKNTVYLQMNSLKPEDTAVYYCAADWTRGSPGMDYWVQGTQVTVSS,high polyreactivity
18,QLQLVESGGGIVQAGGRLRLSCAASGLIFYLYAMGWYRQAPGKERELVATITTGGRTNYADSVKGRFTISRDNAKISVYLQMNSLTPVDTAVYYCAATHRGQGGYYWGQGSQVTVSS,low polyreactivity
19,QVQLVESGGGLVQAGGSLRLSCAASGFTFYLNAKGWYRQAPGKERELVAAITGSGGSTYYADSVKGRFTISRDNAKNTVYLQMNSLKPEDTAVYYCAADLYFYVISSGYGFYYWGQGTQVTVSS,low polyreactivity
20,QVQLVESGGGLFQAGGSLPVSCAASGFIFDDYAMGWYRQAPGKERELVAAISSGGSTNYADSVKGRFTISRDNAKNTVYLQLNSLKPEDSAVYYCADRAGYQFSYNYWGQGTQVTVSS,high polyreactivity
21,QVQLVESGGGLVQAGGSLRFSCAASGSTFGYYAMGWYRQAPGKEREMVAVITYSGGSTYYADSVKGRFTISRDNAKNTVYLQMNSLKPEDTAVYYCATDNYDWSSWAFRGYWYDYWGQGTQVTVSS,low polyreactivity
22,QVQLVESGGGLVQAGGTLRLSCAASGITFHRYDMGWYRQAPGKERELVADITWSGGSTYYADSVKGRFTISRDNAKNTVYLQMNSLKPEDTAVYYCAADASTYTYTPYDNWGQGTQVTVSS,low polyreactivity

row,Sequence,polyreactivity (PSR sort gate)
1,QVQLVESGGGLVEAGGSLRLSCAASGFTFRQYAMGWYRQAPGKEWELVAAISSGGSTYYADSVKGRFTISRDNAKNTDYVQMNSLKPEDTAVYYCAATHWAYSRVPYDYWGQGTQVTVSS,high polyreactivity
2,QVQLVESGAGLVQAGGSLRLSCAASGSILDEYAMGWYRQPPGKERELVAAISSSGTSTYYADSVKGRFTISRDNAKNTVYLQMNSLKPEDTAVYYCARVKQHTSHRVPGDDYWGQGTQLTVSS,low polyreactivity
3,QVQLVESGGGLVQAGGSLRLSCAASGSTLGAYAMGWYRQAPGKERELVAAITYSTGSTYYADSVKGRFTISRDNAKNTVYLQMNSLKPEDTAVYYCAAATYQSRYFQRFDCWGQGTQVTVSS,high polyreactivity
4,QVQIVESGGGLVQAGGSLRLSCAASGSIFWFYAMGWSRQAPGKERELVAAITWNGGRTYYADSVKGRFTISRDNAKNTVYLQMNCLKPEDTAVYYCNKVSGYDVDYWGHGTQVTVSS,high polyreactivity
5,QVQLVESGGGLVQAGGSLRLSCAASGSTFARYAMGWYRQAPGKERELVAAISITGSTYYADSVKGRFTISRDNAKNTVYLQMNSLNPEDTAVYYCNVKSKYRYGYWGQGTQVTVSS,high polyreactivity
6,QDQHVESGGGLVQAGGSLRLSCAASGSTFYIYARGWYRQAPGKERELVARISGSGGSTYYADSVKGRFTISRDNAKNTVYLQMNSLKPEDTAVYYCAAEDIYKYYQYYAFPYYRYDYWGQGTQVTVSS,low polyreactivity
7,QVQLVESGGGLVQAGCSLRLSCAASGITFTYYAMGWYRQAPGKERELVAAINTGGNTNYADSVKGRFTISRDYAKNSVYLQMNSLKPEDTAVYYCAAYWYYYWWYDYWGQGTQVSVSS,high polyreactivity
8,QVQLVESGGGLVLAGGSLRLSCAASGSTFDTYAMGWYRQAPGKERELVAAITSGGITNYADSVKGRFTISRDNAKNTVYVQMNSLKPEDTAVYYCAKEGFWPRQARRLDYWGQGTQVTVSS,low polyreactivity
9,QVQLVESGGGLVQAGGSLRLSSAASGITFQAYPMGWYRQAPGKQRELVAAISNGGSTYYADSVKGRFTISRDNAKNTVYLEMNSLNPEDTAVYYCAAVSYYPARYGYWGQGTQVTVSS,high polyreactivity
10,QVQLVESGGGLVQAGGSLRLSCAASGGISTAYTMGWYRQAPGKERELVADITRSGGRTYYADSVKGRFTISRDNAKNTVYLQMNSLKPEDTAVYYCARTYYYRFNYWGQGTQVTVSS,high polyreactivity
11,QVQLVESGGGLVQAGGSLRLSCAASGSIFYSYAMGWYRQAPGKERELVADITSSGGSTYYADSVKGRFTISRDNAKNTVYFQMNSLKPEDTAVYYCAASSPAFYGMRYNYWGHGTQVTVSS,low polyreactivity
12,QVQLVESVVGLVQAGVSLRLSCSASGFIFGRYAMGWYRQAPGKERELVADISWNGGSTYYADSVKGRFTISRDNAKNTVYLQMNSLKPEDTAVYYCAADYYWASFKYPYLRPYDYWGLGTQVTVSS,high polyreactivity
13,QVQLVESGGGLVQAGGSLRLSCAASGRIFTNNAMGWYRPAPGKERELVAAISRSGGRTYYADSVKGRFTISRDNAKNTVYLQMNSLKPEDTAVYYCAAVHLYYGYNSPFTMDYWGQGTQVTVSS,high polyreactivity
14,QVQLVESGVCLVQSGGSLRLICAASGRIITPYTMGWYRQAPGKERELVATITWSGGSTYYADSVKGRFTISRDNSKNTVYLQMNSLKPEDTAVYYCAARQIYVWAEYDYWGQGTQVTVSS,low polyreactivity
15,QVQLVESGGGLVQAGGSLRLSCAASGRTFRYYAMGWYRQAPGKERELVAAITSGGSTYYADSVKGRFTISRDNAKNTVYLQMNSLKPEDTAVYYCNAFFATGVDYWGQGTQVTVSS,high polyreactivity
16,QVQLVESGGGLVQAGGSLRLICAASGRTFNPYAMGWYRQAPGKERELVAAISSGGNTNYADSVKGRFTISRDNAKNSVYLQMNSLKPEDTAVYYCATGLRWYHQLTGGYWGQGTQVTVSS,high polyreactivity
17,QVQLVESGGGLVQAGGSLRLSCAASGSIFTHNAMGWYRQAHGKERELVAAISSGGSTNYADSVKGRFTISRDNAKNTVYLQMNSLKPEDTAVYYCAKSIDGWYWRRRRYDYWGQGTQVTVSS,low polyreactivity
18,QAQLQESGGSLVQAGGGLRLSCAASGYSSVGSVMGWYRQAPSKEREHVASIDQGANTNYADSVKGRFTISRDNAKNNVYLQMTSLKPEDTAVYYCATETTYILNYWGQGTQVTVSS,low polyreactivity
19,QVQLVESGGGLVQAGGSLRLSCAASGPTFDYYAMGWYRQAPGKERELVAAISYSGGNSYYADSVKGRFTISRDNAKNTVYLQMNSLKPEDTAVYYWAANPAARDGRKTGYFCGQGTQVTVSS,high polyreactivity
20,QVQLVESGGGLVQAGGSLRLSWAASGITFYGNAMGWYRAAPGKEREFVAAISTRDGTTYADSVKGRFTISRDNAKNTVYLQRNSLKPEDTAVYYCAAAYYYDGQQGDFAYWGQGTQVTVSS,low polyreactivity
21,QVQLVESGGGLLQAGGSLRLSCAASGRIFGSYAMGWYRQAPGKERELVAGIRSVGSTNYADSVKGRFTISRDNAKNTVYLQMNSLKPEDTAVYYCAARLWHLSYAGQGGDYWGQGTQVTVSS,low polyreactivity
